This note sets out measurements from patent US20250042956A1 (University of California, published 2025).

What all share (assay): IP-MS rep 1
For one assay, the target named is T1, AT3G10480.3 NAC050 (Arabidopsis thaliana, UniProt Q9SQX9 1-447, limits assumed).
T1 construct: Endogenous protein found by mass spectrometry
T1 sequence (looked up): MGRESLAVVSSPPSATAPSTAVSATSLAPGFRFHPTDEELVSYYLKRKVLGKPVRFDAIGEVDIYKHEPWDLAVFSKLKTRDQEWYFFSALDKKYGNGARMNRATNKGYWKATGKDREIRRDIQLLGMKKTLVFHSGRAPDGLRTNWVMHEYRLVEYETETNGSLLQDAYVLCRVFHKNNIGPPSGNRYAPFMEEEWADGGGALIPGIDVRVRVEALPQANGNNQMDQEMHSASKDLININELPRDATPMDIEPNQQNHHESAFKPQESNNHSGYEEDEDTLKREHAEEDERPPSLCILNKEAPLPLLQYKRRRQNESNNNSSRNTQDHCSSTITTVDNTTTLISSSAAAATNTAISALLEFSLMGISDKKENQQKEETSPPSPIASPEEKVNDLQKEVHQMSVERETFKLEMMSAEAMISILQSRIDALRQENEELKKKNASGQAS
The method, boiled down: (§1)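 Ten grams of unopened floral buds from Col-0 wild type and FLAG-tagged transgenic Arabidopsis lines were ground in liquid nitrogen, homogenised in 25 mL IP buffer and filtered through Miracloth. Lysates were incubated with 250 μL anti-FLAG M2 magnetic beads at 4° C for 2 hours, washed and eluted with TBS containing 250 μg/mL 3×FLAG peptides. Eluted proteins were precipitated with trichloroacetic acid and analysed by mass spectrometry to give peptide counts for co-purified proteins.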

In the next assay the target is T2, AT2G23380.1 CLF (Arabidopsis thaliana, UniProt P93831 1-902).
T2 construct: Endogenous protein found by mass spectrometry; also called CURLY LEAF
T2 sequence (looked up): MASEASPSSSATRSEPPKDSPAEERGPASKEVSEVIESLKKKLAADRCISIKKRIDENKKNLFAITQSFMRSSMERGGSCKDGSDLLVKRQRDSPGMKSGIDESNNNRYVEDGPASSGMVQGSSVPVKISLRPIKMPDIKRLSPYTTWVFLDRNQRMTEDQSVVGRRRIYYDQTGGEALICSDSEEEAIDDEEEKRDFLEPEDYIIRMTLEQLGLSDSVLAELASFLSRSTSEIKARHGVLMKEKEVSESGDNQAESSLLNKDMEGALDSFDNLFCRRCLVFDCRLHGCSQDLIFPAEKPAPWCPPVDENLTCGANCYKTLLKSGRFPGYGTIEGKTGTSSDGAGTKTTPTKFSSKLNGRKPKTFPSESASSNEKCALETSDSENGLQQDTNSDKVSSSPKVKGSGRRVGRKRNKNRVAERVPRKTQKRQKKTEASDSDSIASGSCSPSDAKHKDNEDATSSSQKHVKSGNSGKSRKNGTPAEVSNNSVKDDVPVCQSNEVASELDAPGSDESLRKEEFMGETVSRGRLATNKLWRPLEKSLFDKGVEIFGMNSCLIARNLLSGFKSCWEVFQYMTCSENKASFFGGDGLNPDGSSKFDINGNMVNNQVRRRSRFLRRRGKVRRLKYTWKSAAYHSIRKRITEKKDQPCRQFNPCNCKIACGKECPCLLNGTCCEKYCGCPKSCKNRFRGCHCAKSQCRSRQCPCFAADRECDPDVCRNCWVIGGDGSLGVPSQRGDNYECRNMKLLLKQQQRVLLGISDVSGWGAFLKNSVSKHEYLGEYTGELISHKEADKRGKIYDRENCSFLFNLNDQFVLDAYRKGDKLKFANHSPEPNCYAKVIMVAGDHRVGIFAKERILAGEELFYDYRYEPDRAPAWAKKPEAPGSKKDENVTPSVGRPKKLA
The method in brief: as §1

The next assay concerns the target T3, AT5G08450.1 HDC1 (Arabidopsis thaliana).
T3 construct: Endogenous protein found by mass spectrometry
The method, boiled down:
as §1

A further assay concerns the target T4, AT1G49950.3 TRB1 (Arabidopsis thaliana, UniProt Q8VWK4 1-300, limits assumed).
T4 construct: Endogenous protein found by mass spectrometry
T4 sequence: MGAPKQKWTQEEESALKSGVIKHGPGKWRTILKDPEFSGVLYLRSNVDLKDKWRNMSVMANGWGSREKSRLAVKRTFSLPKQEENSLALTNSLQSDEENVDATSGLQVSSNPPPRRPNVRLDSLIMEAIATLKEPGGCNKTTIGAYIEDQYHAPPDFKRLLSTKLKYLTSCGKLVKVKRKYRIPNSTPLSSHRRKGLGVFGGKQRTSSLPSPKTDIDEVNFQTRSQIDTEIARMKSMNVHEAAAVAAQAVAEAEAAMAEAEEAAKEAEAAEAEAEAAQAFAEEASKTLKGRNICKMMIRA
The method, boiled down:
as §1

B1: TRBIP2 (bait of the TRBIP2 IP-MS) (other, not shown: small tags and cut ends)
chain: MATNACLESDSLLPPRKRLLAGFKNQNSRISNESPSPPFASSSSSTTTSNGSSASAVVHTHHLDHLLNDQTRSPEELAQASKATAALAVKVAKAARATANEKAIIASKAVAAAKNALELFASFPAAETVSCKEPRLIRAINNSPRVLTDCSGHRNKKQKTLTSTMNDGNDVAGVVDSDDGTRVNGKLLLCDNTLKEKTEEESSSLGKRRGRVKLPLSMCAYKDQENGITLEENNLSVSKSEGYNGGVAQVIERPSWKCQDLKSPECVKQNKVVRS
notes: tag and its position not described; also called TRBIP2-1; TRBIP2-2
In the case of B1, the IP-MS count with AT3G10480.3 NAC050 amounted to 1; with AT2G23380.1 CLF, 0; with AT5G08450.1 HDC1, 2; in the assay with AT1G49950.3 TRB1 it was 26.
